{"source": "patent EP2182008A2", "key": {"[1]": {"target": "T1, VCAM-1/IgG1 fusion protein (seven extracellular immunoglobulin-like domains) (UniProt P19320)", "T1 sequence (looked up)": "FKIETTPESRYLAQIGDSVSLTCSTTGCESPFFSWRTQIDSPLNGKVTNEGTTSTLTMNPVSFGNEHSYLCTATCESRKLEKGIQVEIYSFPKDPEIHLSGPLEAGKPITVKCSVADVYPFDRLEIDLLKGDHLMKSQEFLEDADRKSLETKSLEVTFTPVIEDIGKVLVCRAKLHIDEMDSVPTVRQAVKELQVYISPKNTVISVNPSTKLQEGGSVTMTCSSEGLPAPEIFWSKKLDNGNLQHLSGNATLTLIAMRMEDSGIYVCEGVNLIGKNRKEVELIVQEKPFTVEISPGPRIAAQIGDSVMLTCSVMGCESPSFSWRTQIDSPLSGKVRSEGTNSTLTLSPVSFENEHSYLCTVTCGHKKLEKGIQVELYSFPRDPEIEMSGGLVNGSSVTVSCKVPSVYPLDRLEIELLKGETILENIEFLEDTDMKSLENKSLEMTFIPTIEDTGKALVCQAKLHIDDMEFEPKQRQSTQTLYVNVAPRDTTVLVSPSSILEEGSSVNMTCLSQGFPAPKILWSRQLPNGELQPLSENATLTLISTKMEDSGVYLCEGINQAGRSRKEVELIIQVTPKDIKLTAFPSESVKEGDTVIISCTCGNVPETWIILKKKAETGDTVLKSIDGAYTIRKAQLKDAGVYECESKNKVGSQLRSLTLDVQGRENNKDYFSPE", "experiment": "ELISA, Iαd/IgG4 on immobilized CAM/IgG, detection with anti-IgG4 HP6023"}, "[2]": {"target": "mutant two domain VCAM-1 fused to human immunoglobulin Fc (substitution at residue 40) (human) (UniProt P19320)", "experiment": "adhesion of transfected CHO cells to immobilized CAM, crystal violet, A570"}, "[3]": {"target": "recombinant VCAM-1 (commercial preparation, R & D Systems) (UniProt P19320)", "experiment": "cell-based or functional assay"}, "[4]": {"target": "soluble ICAM-R/IgG1 fusion protein (UniProt P32942)", "sequence (P32942 30-485 limits assumed)": "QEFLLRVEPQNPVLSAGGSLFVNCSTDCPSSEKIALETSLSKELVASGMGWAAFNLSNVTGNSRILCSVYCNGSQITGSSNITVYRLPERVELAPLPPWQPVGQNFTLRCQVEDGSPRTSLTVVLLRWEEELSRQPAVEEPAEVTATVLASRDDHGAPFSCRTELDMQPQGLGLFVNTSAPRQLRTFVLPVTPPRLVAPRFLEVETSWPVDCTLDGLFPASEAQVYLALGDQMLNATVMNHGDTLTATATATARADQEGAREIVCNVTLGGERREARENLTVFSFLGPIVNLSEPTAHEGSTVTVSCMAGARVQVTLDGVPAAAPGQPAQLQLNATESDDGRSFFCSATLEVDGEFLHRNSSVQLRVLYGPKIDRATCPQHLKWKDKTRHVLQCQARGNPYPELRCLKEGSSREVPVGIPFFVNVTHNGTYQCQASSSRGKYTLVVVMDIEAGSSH", "experiment": "ELISA, soluble integrin in supernatant on immobilized ICAM/Ig"}, "[5]": {"target": "LFA-1 leucine zipper fusion protein (UniProt P20701)", "experiment": "ELISA, plate format; sentence unclear"}, "[6]": {"target": "immobilized CD11b/CD18 (human) (UniProt P05107)", "experiment": "ELISA, plate format; sentence unclear"}}, "data": [{"substance": "human αd I domain/IgG4 fusion protein (from UniProt P01861 99-327) (Fc fusion)", "values": [{"measurement": "fold higher than background", "setting": "[1]", "value": "7 to 10", "unit": "fold"}]}, {"substance": "human αd/CD18 expressed on transfected cells (from UniProt P05107 23-769) (receptor)", "values": [{"measurement": "binding as percent of that with wild-type VCAM-1", "setting": "[2]", "value": 50, "unit": "%"}]}, {"substance": "native human αd/CD18 on human cells (from UniProt Q13349 18-1161; P05107 23-769) (receptor)", "values": [{"measurement": "binding rate of IL-5 cultured eosinophils to immobilized VCAM-1", "setting": "[3]", "value": 28.8, "unit": "%"}, {"measurement": "binding rate of IL-5 cultured eosinophils to immobilized VCAM-1 in the presence of a monoclonal antibody against α4", "setting": "[3]", "value": 18.1, "unit": "%"}, {"measurement": "binding rate of IL-5 cultured eosinophils to immobilized VCAM-1 in the presence of an anti-CD18 monoclonal antibody", "setting": "[3]", "value": 17.1, "unit": "%"}]}, {"substance": "soluble human αd/CD18 leucine zipper heterodimer (from UniProt P05107 23-700) (receptor)", "values": [{"measurement": "fold over control well containing no antibody", "setting": "[4]", "value": 10, "unit": "fold"}, {"measurement": "fold greater than background binding", "setting": "[5]", "value": 5, "unit": "fold"}, {"measurement": "fold greater than background binding", "setting": "[6]", "value": 15, "unit": "fold"}]}]}
